# T1: human GIP receptor, stably transfected in Chinese hamster lung (CHL) fibroblast cells (human, UniProt P48546 22-466)
# T1 sequence (looked up): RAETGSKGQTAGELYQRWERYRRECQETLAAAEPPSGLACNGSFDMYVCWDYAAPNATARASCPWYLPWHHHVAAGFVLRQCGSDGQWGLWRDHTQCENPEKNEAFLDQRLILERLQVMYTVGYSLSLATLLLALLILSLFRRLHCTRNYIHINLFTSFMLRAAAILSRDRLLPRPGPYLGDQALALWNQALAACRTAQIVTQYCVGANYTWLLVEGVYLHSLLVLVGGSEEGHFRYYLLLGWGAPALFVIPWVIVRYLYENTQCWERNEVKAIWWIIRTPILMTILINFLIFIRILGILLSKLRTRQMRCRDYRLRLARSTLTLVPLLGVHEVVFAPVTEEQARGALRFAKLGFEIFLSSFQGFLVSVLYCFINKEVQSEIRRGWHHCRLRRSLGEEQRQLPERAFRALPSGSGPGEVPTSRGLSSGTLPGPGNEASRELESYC
# Target: T1, human GIP receptor, stably transfected …
# Assay: cell-based or functional assay
binder,measurement,value
YAPGTFISDYSIAMDKIHQQDFVNWLLAQKGKKNDWKHNITQ [(Pro^3)GIP],"IC50 of inhibition of GIP-induced cAMP formation (GIP receptor transfected CHL fibroblasts, native GIP 10^-7 M)",2600 nM
